Patent publication US20140037547A1 (UNIVERSITY OF VERMONT AND STATE AGRICULTURAL COLLEGE, published 2014)

Experiments:
[1] = target: T1, wild-type PKG Iα (cGMP-dependent protein kinase type Iα, full length) (UniProt P00516 2-671); test: cell-based or functional assay
T1 sequence (looked up): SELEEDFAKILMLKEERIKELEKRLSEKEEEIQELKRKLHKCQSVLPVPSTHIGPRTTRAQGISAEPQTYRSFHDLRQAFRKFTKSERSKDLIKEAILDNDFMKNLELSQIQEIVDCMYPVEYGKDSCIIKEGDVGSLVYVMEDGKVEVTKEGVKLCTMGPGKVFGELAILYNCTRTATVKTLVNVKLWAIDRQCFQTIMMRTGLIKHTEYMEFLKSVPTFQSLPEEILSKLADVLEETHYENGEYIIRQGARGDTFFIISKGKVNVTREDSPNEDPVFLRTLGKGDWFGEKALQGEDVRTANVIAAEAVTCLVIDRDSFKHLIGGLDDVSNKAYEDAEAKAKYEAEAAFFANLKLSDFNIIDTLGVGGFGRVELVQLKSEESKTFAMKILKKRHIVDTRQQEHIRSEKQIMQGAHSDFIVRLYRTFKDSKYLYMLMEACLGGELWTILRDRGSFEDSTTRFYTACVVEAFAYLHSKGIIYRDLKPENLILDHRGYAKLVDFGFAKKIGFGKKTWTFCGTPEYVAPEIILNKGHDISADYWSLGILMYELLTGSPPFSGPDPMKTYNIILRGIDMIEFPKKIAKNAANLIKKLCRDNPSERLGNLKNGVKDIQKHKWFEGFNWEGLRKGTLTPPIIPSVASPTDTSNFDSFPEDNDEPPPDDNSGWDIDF

SW:329-349 = target: T2, SW:329-349
T2 chain: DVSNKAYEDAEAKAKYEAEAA

SW:329-358 = target: T3, SW:329-358
T3 chain: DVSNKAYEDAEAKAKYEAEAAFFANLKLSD

B1: SW:329-358 (peptide)
peptide: T3 chain
Question: Which “Ka (activation of PKG Iα, kinase primed with 100 nM cGMP)” value [1] does the source give for B1 here?
Answer: 40 µM

Question: And the “shift of the activation profile on priming with 100 nM cGMP” value [1]?
Answer: 20 fold

B2: SW:348-355 AAFFANLK (peptide)
peptide: AAFFANLK
Question: How did the “Ka (activation of PKG)” value [1] turn out when B2 was run?
Answer: 500 µM

Question: And the “activation relative to activation associated with cGMP” value [1]?
Answer: 30%

B3: SW:329-355 (peptide)
peptide: DVSNKAYEDAEAKAKYEAEAAFFANLK
Question: How did the “Ka (activation of PKG Iα, cGMP priming conditions)” value [1] turn out when B3 was run?
Answer: 500 µM

B4: wild-type PKG Iα (cGMP-dependent protein kinase type Iα, full length) (protein)
chain: T1 sequence (looked up)
Question: Which “activation of PKG Iα (32P-incorporation assay, cGMP priming conditions)” value (SW:329-349) does the source give for B4 here?
Answer: rendered a completely inactive SW-peptide derivative

Question: And the “Ka (activation of PKG Iα, 32P-incorporation assay)” value (SW:329-358)?
Answer: Ka=500 µM
